The series in a line: 55Fe efflux after 10 µM hepcidin pretreatment, oocytes. The note with it: glycan lost; control: wild-type mouse Fpn.

B1: mouse ferroportin (Fpn): N437D (protein)
parent chain: MTKARDQTHQEGCCGSLANYLTSAKFLLYLGHSLSTWGDRMWHFAVSVFLVELYGNSLLLTAVYGLVVAGSVLVLGAIIGDWVDKNARLKVAQTSLVVQNVSVILCGIILMMVFLHKNELLTMYHGWVLTVCYILIITIANIANLASTATAITIQRDWIVVVAGENRSRLADMNATIRRIDQLTNILAPMAVGQIMTFGSPVIGCGFISGWNLVSMCVEYFLLWKVYQKTPALAVKAALKVEESELKQLTSPKDTEPKPLEGTHLMGEKDSNIRELECEQEPTCASQMAEPFRTFRDGWVSYYNQPVFLAGMGLAFLYMTVLGFDCITTGYAYTQGLSGSILSILMGASAITGIMGTVAFTWLRRKCGLVRTGLFSGLAQLSCLILCVISVFMPGSPLDLSVSPFEDIRSRFVNVEPVSPTTKIPETVFTTEMHMSNMSNVHEMSTKPIPIVSVSLLFAGVIAARIGLWSFDLTVTQLLQENVIESERGIINGVQNSMNYLLDLLHFIMVILAPNPEAFGLLVLISVSFVAMGHLMYFRFAQKTLGNQIFVCGPDEKEVTDENQPNTSVV
With B1, the “other: hepcidin inhibition of transport” value is given as “no change”.

Values taken from article PMC7780100.
